Source: patent US11261437B2, “Procoagulant compounds” (Bioverativ Therapeutics Inc., priority 2012, dated 2022)
*1 amine or outer side, *2 acyl side, *3 side chain or, on linkers, in order; H or OH if unused. Bridges are numbered along the chain shown (N, C = ends). Where no end group is shown, it is not given here. [ ]: non-standard residue; d: D form. The star is where a group is joined. PABC = O=C(OCc1ccc(N[*:1])cc1)[*:2]; Pip = O=C(O)[C@@H]1CCCCN1; Acm = CC(=O)NC*

Experiments:
Type in all cases: biochemical
[1] = target: T1, thrombin (Homo sapiens, UniProt P00734); assay: Thrombin cleavage of Compounds 1, 4, 5 and 6 by 1.4 nM thrombin (HPLC); conditions: thrombin 1.4 nM, peptide 50 μM, PBS, 37° C.
Method: FIG. 9 depicts the cleavage of Compounds 1, 4, 5 and 6 by 1.4 nM thrombin. Compounds 1, 4 and 5 incorporate PABC and different thrombin-cleavable substrates.
50 μL of peptide (1 mM) in water was added to 900 μL PBS. The mixture was incubated at 37° C. for 30 min, followed by 50 μL of thrombin (27.8 nM, 1 μg/mL), giving the following approximate initial concentrations: thrombin=1.4 nM, peptide=50 μM. The mixture was incubated at 37° C. Aliquots (95 μL) at various time points were quenched with 5 μL of hirudin (2 μM) and injected into the HPLC (C-18 column, CH3CN/H2O, 0 to 70% over 12 minutes, 60° C. 0.5 mL/min, ? =280 nm). The decreases of peptide peak areas were used to calculate yield.

[2] = target: T1, thrombin; assay: Thrombin cleavage of Compound 7 (HPLC); conditions: 1.4 nm thrombin, peptide 10 μM, PBS, 37° C., after 30 minutes
Method: FIG. 5 depicts the cleavage of Compound 7 by thrombin. Upon cleavage with 1.4 nM thrombin in PBS, the clean synthetic procoagulant peptide is released, as well as the portion of the molecule comprising the thrombin substrate, the GGGG linker, and the N-terminal cysteine. To conduct the reaction, 21 μL of peptide (0.24 mM) in water was added to 476.5 μL PBS. The mixture was incubated at 37° C. for 30 min, followed by 2.5 μL of thrombin (278 nM, 10 μg/mL), giving the following approximate initial concentrations: thrombin=1.4 nM, peptide=10 μM. The mixture was incubated at 37° C. Aliquots (60 μL) at various time points were quenched with 1 μL of hirudin (10 μM) and injected into the HPLC (C-18 column, CH3CN/H2O, 0 to 70% over 12 minutes, 60° C. 0.5 mL/min, ? =280 nm). Compound 7 was cleaved rapidly by 1.4 nm thrombin. Approximately 90% of Compound 7 was cleaved after 30 minutes.

[3] = system: plasma (TGA assay); assay: Cleavage of Compound 7 during the TGA assay (HPLC of plasma); conditions: plasma at the end of TGA assay
Method: Plasma at the end of TGA assay for Compound 7 was transferred into cold CH3CN (1 mL) and centrifuged at 13 k rpm for 10 min. Supernatant (1.1 mL) was transferred to a new vial and dried by speedvac. The resulting solid was reconstituted with 30 μL of H2O and injected into the HPLC for analysis.

Row | Thrombin-mediated release of peptide IVGGQE [1] | Substance | Compound cleaved by thrombin [2] | Cleavage during the course of a TGA assay [3]
1 | not observed | Ala-Leu-Val-Pro-Arg-Ile-Val-Gly-Gly-Gln-Glu-NH2 (ALVPRIVGGQE-NH2) [Compound 6] | – | –
2 | – | Cys(Acm)-Gly-Gly-Gly-Gly-Dphe-Pip-Arg-PABC-rRAPGKLTCLASYCWLFWTGIA-NH2 (disulfide) (C(Acm)GGGG[dF][Pip]R[PABC][dR]RAPGKLTCLASYCWLFWTGIA-NH2; disulfide 18-23 (inferred)) [Compound 7] | Approximately 90% | cleaved completely
